Experimental data published in the Immune Epitope Database (IEDB).

Columns and labels:
HLA-B*58:01 = assay: IEDB peptide-MHC binding, purified MHC/direct/fluorescence; filed as Kd, often an IC50 or EC50 that approximates it; ≥ and ≤ were set here for values at or beyond the usual limits of such assays; settings: source organism: Mammarenavirus juninense
HLA-A*02:03 = assay: IEDB peptide-MHC binding, purified MHC/competitive/radioactivity; filed as Kd, often an IC50 or EC50 that approximates it; ≥ and ≤ were set here for values at or beyond the usual limits of such assays
HLA-A*02:02 = assay: as above
HLA-A*02:06 = assay: as above
HLA-A*02:01 [1] = assay: IEDB peptide-MHC binding, purified MHC/competitive/fluorescence; ≥ and ≤ were set here for values at or beyond the usual limits of such assays
HLA-A*11:01 = assay: IEDB peptide-MHC binding, purified MHC/direct/fluorescence; filed as Kd, often an IC50 or EC50 that approximates it; ≥ and ≤ were set here for values at or beyond the usual limits of such assays; settings: source organism: Francisella tularensis subsp. holarctica LVS
HLA-A*03:01 = assay: as above
HLA-B*35:01 = assay: IEDB peptide-MHC binding, purified MHC/competitive/radioactivity; filed as Kd, often an IC50 or EC50 that approximates it; ≥ and ≤ were set here for values at or beyond the usual limits of such assays
HLA-A*26:01 = assay: as above
HLA-B*53:01 = assay: as above
HLA-B*51:01 = assay: as above
HLA-A*69:01 = assay: IEDB peptide-MHC binding, purified MHC/direct/fluorescence; filed as Kd, often an IC50 or EC50 that approximates it; ≥ and ≤ were set here for values at or beyond the usual limits of such assays
HLA-A*02:01 [2] = assay: as above
HLA-B*07:02 [3] = assay: IEDB peptide-MHC binding, purified MHC/competitive/radioactivity; filed as Kd, often an IC50 or EC50 that approximates it; ≥ and ≤ were set here for values at or beyond the usual limits of such assays
HLA-B*15:01 = assay: IEDB peptide-MHC binding, purified MHC/direct/fluorescence; filed as Kd, often an IC50 or EC50 that approximates it; ≥ and ≤ were set here for values at or beyond the usual limits of such assays; settings: source organism: Vibrio cholerae
HLA-B*07:02 [4] = assay: as above
HLA-A*01:01 = assay: as above; settings: source organism: Escherichia coli
[5] = source organism: Mammarenavirus juninense
[6] = source organism: SARS coronavirus Tor2
[7] = source organism: Zaire ebolavirus
[8] = source organism: Vaccinia virus WR
[9] = source organism: Dengue virus 1 Brazil/97-11/1997
[10] = source organism: Lymphocytic choriomeningitis virus (strain Armstrong)
[11] = source organism: Dengue virus 3 Martinique/1243/1999
[12] = source organism: Entamoeba histolytica HM-1:IMSS
[13] = source organism: Dengue virus 4 Philippines/H241/1956
[14] = source organism: Vibrio cholerae
[15] = source organism: dengue virus type 4
[16] = source organism: Lassa virus Josiah

Q: VSFSMVGLF was tested. Which Kd (HLA-B*58:01) did it give?
A: The Kd was 119 nM.

Q: How did the Kd (HLA-A*02:03; [5]) turn out when CNYTKFWYV was run?
A: Its Kd is 794 nM.

Q: What about the Kd (HLA-A*02:02; [5]) of the same sequence?
A: Its Kd is 1940 nM.

Q: And the Kd (HLA-A*02:06; [5])?
A: Its Kd is 34.5 nM.

Q: Which Kd (HLA-A*02:03; [6]) does the source give for GLSDRVVFV here?
A: The Kd was 1.07 nM.

Q: What about the Kd (HLA-A*02:02; [6]) of the same sequence?
A: The Kd was 1.04 nM.

Q: What about the Kd (HLA-A*02:06; [6]) of the same sequence?
A: The Kd was 68.6 nM.

Q: With CSSISIKLT as the sequence, how does the IC50 (HLA-A*02:01 [1]; source organism: Vaccinia virus Copenhagen) read?
A: The IC50 was ≥ 729000 nM.

Q: With QLNETIYTS as the sequence, how does the IC50 (HLA-A*02:01 [1]; [7]) read?
A: The IC50 was 2800 nM.

Q: With VIRHVDGKI as the sequence, how does the Kd (HLA-A*02:03; [8]) read?
A: The Kd was 978 nM.

Q: What about the Kd (HLA-A*02:02; [8]) of the same sequence?
A: Its Kd is 8550 nM.

Q: And the Kd (HLA-A*02:06; [8])?
A: Its Kd is 9270 nM.

Q: How did the Kd (HLA-A*11:01) turn out when RIYCQENPY was run?
A: The Kd was 26.3 nM.

Q: What about the Kd (HLA-A*03:01; source organism: Francisella tularensis subsp. holarctica LVS) of the same sequence?
A: The Kd was 91.7 nM.

Q: How did the Kd (HLA-B*35:01; [9]) turn out when LPVWLSYKVA was run?
A: Its Kd is 864 nM.

Q: Which results are given for AVYFKAKWLT?
A: Kd (HLA-A*02:03; [8]): 8930 nM; Kd (HLA-A*02:02; [8]): ≥ 27200 nM; Kd (HLA-A*02:06; [8]): 8710 nM

Q: GANGSTAEQL was tested. Which Kd (HLA-A*02:03; [8]) did it give?
A: Its Kd is ≥ 45300 nM.

Q: And the Kd (HLA-A*02:02; [8])?
A: Its Kd is 7280 nM.

Q: What about the Kd (HLA-A*02:06; [8]) of the same sequence?
A: Its Kd is ≥ 55400 nM.

Q: RNHLRDLMGV was tested. Which Kd (HLA-A*02:03; [10]) did it give?
A: Its Kd is 733 nM.

Q: And the Kd (HLA-A*02:02; [10])?
A: The Kd was 428 nM.

Q: What about the Kd (HLA-A*02:06; [10]) of the same sequence?
A: The Kd was 107 nM.

Q: EFLDYMPSM was tested. Which Kd (HLA-A*26:01; [11]) did it give?
A: The Kd was 16200 nM.

Q: With FPYSIPATL as the sequence, how does the Kd (HLA-B*53:01; [11]) read?
A: Its Kd is 2.15 nM.

Q: And the Kd (HLA-B*51:01; [11])?
A: The Kd was 89 nM.

Q: And the Kd (HLA-B*35:01; [11])?
A: Its Kd is 1.99 nM.

Q: With LPVLLGSFGC as the sequence, how does the Kd (HLA-B*53:01; [9]) read?
A: The Kd was 117 nM.

Q: What about the Kd (HLA-B*51:01; [9]) of the same sequence?
A: The Kd was ≥ 43500 nM.

Q: What about the Kd (HLA-B*35:01; [9]) of the same sequence?
A: The Kd was 5940 nM.

Q: For NISLPLYTV, which Kd (HLA-A*69:01; [12]) is on record?
A: Its Kd is 8.5 nM.

Q: What about the Kd (HLA-A*02:01 [2]; [12]) of the same sequence?
A: The Kd was 47.5 nM.

Q: MAICSAVPT was tested. Which Kd (HLA-B*35:01; [13]) did it give?
A: The Kd was 543 nM.

Q: With VPMAGPLVA as the sequence, how does the Kd (HLA-B*07:02 [3]; [11]) read?
A: Its Kd is 56 nM.

Q: EVIGLTTHCT was tested. Which Kd (HLA-A*02:03; [8]) did it give?
A: The Kd was 14900 nM.

Q: What about the Kd (HLA-A*02:02; [8]) of the same sequence?
A: The Kd was 10500 nM.

Q: What about the Kd (HLA-A*02:06; [8]) of the same sequence?
A: The Kd was 12200 nM.

Q: Which Kd (HLA-A*02:03; [8]) does the source give for YAGTIKESLL here?
A: Its Kd is 4040 nM.

Q: What about the Kd (HLA-A*02:02; [8]) of the same sequence?
A: The Kd was 1020 nM.

Q: And the Kd (HLA-A*02:06; [8])?
A: Its Kd is 1770 nM.

Q: Which Kd (HLA-A*02:03; [8]) does the source give for IIYSKAGNIL here?
A: Its Kd is 110 nM.

Q: And the Kd (HLA-A*02:02; [8])?
A: Its Kd is 8.48 nM.

Q: What about the Kd (HLA-A*02:06; [8]) of the same sequence?
A: Its Kd is 342 nM.

Q: How did the Kd (HLA-A*02:03; [8]) turn out when SADNHPKMI was run?
A: Its Kd is ≥ 43500 nM.

Q: And the Kd (HLA-A*02:02; [8])?
A: The Kd was 8180 nM.

Q: And the Kd (HLA-A*02:06; [8])?
A: The Kd was ≥ 77100 nM.

Q: Which Kd (HLA-A*02:01 [2]; source organism: Homo sapiens) does the source give for GLRAIKSVL here?
A: The Kd was 5660 nM.

Q: How did the Kd (HLA-B*53:01; source organism: Dengue virus 2 Jamaica/1409/1983) turn out when VSIPITAAAW was run?
A: Its Kd is 402 nM.

Q: Which Kd (HLA-A*02:03; [8]) does the source give for FLARKGIDT here?
A: Its Kd is 318 nM.

Q: What about the Kd (HLA-A*02:02; [8]) of the same sequence?
A: The Kd was 1020 nM.

Q: What about the Kd (HLA-A*02:06; [8]) of the same sequence?
A: The Kd was 3040 nM.

Q: QLQCHQIAI was tested. Which Kd (HLA-B*15:01) did it give?
A: The Kd was 7260 nM.

Q: And the Kd (HLA-B*07:02 [4]; [14])?
A: Its Kd is 6710 nM.

Q: What about the Kd (HLA-A*69:01; [14]) of the same sequence?
A: The Kd was 5310 nM.

Q: And the Kd (HLA-A*03:01; [14])?
A: Its Kd is 13200 nM.

Q: What about the Kd (HLA-A*02:01 [2]; [14]) of the same sequence?
A: Its Kd is 92 nM.

Q: What does the source list for TPEGIIPTL?
A: Kd (HLA-B*07:02 [4]; [15]): 9240 nM; Kd (HLA-A*69:01; [15]): 2720 nM

Q: How did the Kd (HLA-A*02:03; [8]) turn out when NITPDDGLGL was run?
A: The Kd was 1290 nM.

Q: And the Kd (HLA-A*02:02; [8])?
A: The Kd was 1910 nM.

Q: What about the Kd (HLA-A*02:06; [8]) of the same sequence?
A: Its Kd is 3450 nM.

Q: With HTIENSTAN as the sequence, how does the Kd (HLA-A*26:01; [11]) read?
A: Its Kd is 6990 nM.

Q: EYVDYMPVM was tested. Which Kd (HLA-A*26:01; [13]) did it give?
A: The Kd was ≥ 21300 nM.

Q: For YCSNIKLQVV, which Kd (HLA-A*02:03; [16]) is on record?
A: Its Kd is 801 nM.

Q: And the Kd (HLA-A*02:02; [16])?
A: The Kd was 1230 nM.

Q: And the Kd (HLA-A*02:06; [16])?
A: The Kd was 7120 nM.

Q: ISEPMFHQG was tested. Which Kd (HLA-A*69:01; source organism: Escherichia coli) did it give?
A: Its Kd is 1690 nM.

Q: What about the Kd (HLA-A*01:01) of the same sequence?
A: Its Kd is 7130 nM.

Q: What does the source list for SANMDWRSLT?
A: Kd (HLA-A*02:03; [8]): 11300 nM; Kd (HLA-A*02:02; [8]): 1790 nM; Kd (HLA-A*02:06; [8]): ≥ 48000 nM

Q: For TPVTTWENV, which Kd (HLA-B*51:01; [11]) is on record?
A: The Kd was 12900 nM.

Q: TPMLRHTIEN was tested. Which Kd (HLA-B*07:02 [3]; [11]) did it give?
A: The Kd was 1020 nM.

Q: What does the source list for TILDDNLYKV?
A: Kd (HLA-A*02:03; [8]): 1630 nM; Kd (HLA-A*02:02; [8]): 1080 nM; Kd (HLA-A*02:06; [8]): 48.8 nM

Q: TMGPHPAGV was tested. Which Kd (HLA-A*02:01 [2]; source organism: Burkholderia pseudomallei) did it give?
A: Its Kd is 0.7 nM.

Q: WPLNEGVMAV was tested. Which Kd (HLA-B*51:01; [11]) did it give?
A: Its Kd is 1670 nM.

Q: How did the Kd (HLA-B*07:02 [3]; source organism: Dengue virus 4 Dominica/814669/1981) turn out when SPGYVLGVFL was run?
A: Its Kd is 238 nM.

Q: CPTQGEAVL was tested. Which Kd (HLA-B*07:02 [3]; [11]) did it give?
A: The Kd was 53.7 nM.

Q: Which IC50 (HLA-A*02:01 [1]; [7]) does the source give for LEKVQRQIQ here?
A: The IC50 was ≥ 446000 nM.
